Experimental data taken from patent publication US20210347873A1 (SHANGHAI PHARMAEXPLORER, published 2021).
Residue numbers refer to the chain shown, from its start.

B1: c89A2G5E7 (antibody, V domains shown)
VH: QVQLKESGPGLVAPSQSLSITCTVSGLSLNSHDISWIRQPPGKGLEWLGVIWSGGGTKYNSAFMSRLSISKDNSKSQVFLKMNSLHTDDTAIYYCVRTPSMITYSAMDYWGQGTSVTVSS
VL: EIVLTQSPALMAASPGEKVTITCSVSSSISSRNLHWYQQKSQTSPKAWIHATSNLASGVPVRFSGSGSGTSYSLTISSMEAEDAATYYCQQWSSYPLTFGSGTKLEIK
B2: humanized BLyS antibody h8E7D9C7F5-1 (antibody, human IgG1, V domains shown)
VH: EVQLVQSGAEVKKPGASVKVSCKASGYTFTSYGISWVRQAPGQGLEWMGEIYPRSGNTYYNEKFKGRVTMTTDTSTSTAYMELRSLRSDDTAVYYCARSGPITTLVATDYGMDYWGQGTTVTVSS
VL: DIVMTQSPDSLAVSLGERATINCRASKSVSTSSYSYMHWYQQKPGQPPKLLIKFASNLESGVPDRFSGSGSGTDFTLTISSLQAEDVAVYYCQHSREFPYTFGGGTKVEIK
B3: c97E7B3F2 (antibody, V domains shown)
VH: EVQLQQSGPELVKSGASVKISCKASGYTFTDHKMHWVKQSHGKSLEWIGYISPYNGGTGYNQKFKSKVTLTVDISSSTAYMELRSLTSEDSAVYYCARWGFYDVMDSWGQGTSVTVSS
VL: DVLLTQTPLSLPVSLGDQASISCRSSQTIVHIIGDTYLEWYLQKPGQSPKLLIYKVSNRFSGVPDRFSGSGAGTDFTLKISRVEAEDLGVYYCFQGSHVPRTFGGGTKLEIK
B4: 8E7D9C7F5 (antibody, V domains shown)
VH: QVQLQQSGVELARPGASVKLSCKASGYTFTSYGISWVKQRTGQALEWIGEIYPRSGNTYYNEKFKGKATLTADKSSSTAYMELRSLTSEDSAVYFCARSGPITTLVATDYGMDYWGQGTSVTVSS
VL: DIVLTQSPASLAVSLGQRATISCRASKSVSTSSYSYMHWYQQKPGQPPKLLIKFASNLESGVPARFSGSGSGTDFTLNIHPVEEEDAATYYCQHSREFPYTFGGGTKLEIK
B5: mouse-human chimeric BLyS antibody c8E7D9C7F5 (antibody, human IgG1, V domains shown)
VH: B4 VH
VL: B4 VL
B6: humanized BLyS antibody h97A3C2H4-9 (antibody, human IgG1, V domains shown)
VH: EVQLVESGGGLVQPGGSLRLSCAASGFTFSTYTMSWVRQAPGKRLEWVAYISYGGGSTSYPDTVKGRFTISRDNAKNSLYLQMNSLRAEDTAVYYCTRHVTVVENSMDYWGQGTTVTVSS
VL: DILLTQSPDFQSVTPKEKVTITCRASQSIGTSIHWYQQKTDQSPKLLIKYVSESFSGTPSRFSGSGSGTDFTLTINSLEAEDAATYYCQQTHSWPWTFGGGTKVEIK
B7: mouse-human chimeric BLyS antibody c97A3C2H4 (antibody, human IgG1, V domains shown)
VH: B6 VH with Q3K, R19K, A40T, G42E, S78T, N84S, R87K, A88S, V93I, T115S
VL: DILLTQSPDILSVSPGERVSFSCRASQSIGTSIHWYQQRTNGSPRLLIKYVSESFSGTPSRFSGSGSGTAFTLTINSVESEDIADYYCQQTHSWPWTFGGGTKLEIK
B8: c20D1B6E9E5 (antibody, V domains shown)
VH: EVQLQQSVAELVRPGASVKLSCTASDFNIKNTYIHWVKQRPEQGLEWIGRIDPVNGNTKYAPKFQDKATIIVDTYSNTAYLQLSSLASEDTAVYYCARWPITTIVATDWYFDVWGTGTTVTVSS
VL: DVLMTQTQLALPVRLGEQASISCRSSQSIVNSNGNTYLEWYLQKPGQSPKLLIYKVSNRFSGVPDRFSGSGSGTDFTLKISRVEAEDLGVYYCFQGSHVPWTFGGGTKLEIK

Experiments:
[1] = target: T1, extracellular domain of human BLyS protein (hBLyS-ECD), His-tagged, Ala134-Leu285 (human, UniProt Q9Y275 134-285); assay: SPR (Biacore), antibody captured by anti-human Fc, hBLyS-ECD as analyte
T1 construct: Expressed in HEK293 cells and purified on a Ni column; also called immunogen
T1 sequence (Q9Y275 134-285): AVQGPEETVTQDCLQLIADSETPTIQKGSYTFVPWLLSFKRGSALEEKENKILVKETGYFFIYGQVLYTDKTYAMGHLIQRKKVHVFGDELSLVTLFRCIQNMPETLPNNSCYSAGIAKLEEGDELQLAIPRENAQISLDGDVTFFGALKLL

[2] = target: His-tagged extracellular domain of human BLyS protein (hBLyS-ECD), Ala134-Leu285 (human, UniProt Q9Y275 134-285); assay: cell-based or functional assay
[3] = target: T2, human APRIL protein (human, UniProt O75888 105-250, limits assumed); assay: ELISA, coated APRIL; antibody 0 nM (blank)
T2 construct: Bought protein; also called recombinant APRIL protein
T2 sequence (looked up): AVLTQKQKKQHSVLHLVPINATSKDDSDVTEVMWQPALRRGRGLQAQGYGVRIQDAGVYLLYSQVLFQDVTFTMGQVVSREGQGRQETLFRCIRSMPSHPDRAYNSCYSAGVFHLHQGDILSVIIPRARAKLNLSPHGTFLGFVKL
Method: (§1) To test whether the BLyS antibody cross-reacted with human APRIL protein, APRIL protein (purchased from R & D Systems) was first diluted to a final concentration of 1.0 μg/mL with PBS, and then 50 μL of which per well was aliquoted into a 96-well ELISA plate, and the plate was subsequently sealed with plastic film and incubated at 4° C. overnight. On the next day the plate was rinsed four times with the plate washing buffer [PBS buffer containing 0.0500 (v/v) Tween20] and a blocking solution [PBS buffer containing 0.05 (v/v) Tween20 and 1 (w/w) BSA] was added, then the protein was blocked at 37° C. for 2 hours. The blocking solution was removed and 100 μL per well of the lead antibodies prepared in Embodiment 1 and 2 were added in. After incubation for 1 hour at 37° C., the plate was rinsed four times with the plate washing buffer [PBS buffer containing 0.05 (v/v) Tween20]. HRP-labeled (horseradish peroxidase) secondary antibody (purchased from Sigma) was added in and incubated at 37° C. for 1 hour. The plate was then rinsed four times with the plate washing buffer [PBS buffer containing 0.050 (v/v) Tween20]. 100 μL of TMB substrate was aliquoted into each well and after incubation at room temperature for 5 minutes, 100 μL of stop solution (1.0 N HCl) was aliquoted into each well. A₄₅₀ₙₘ values were read via an ELISA plate reader (SpectraMax M5e purchased from Molecular Devices) and the results were shown in FIGS. 6A-6B and Table 11. […] As used herein, the IgG control is human IgG and the data in the table is GD number at 450 nm.

[4] = target: T2, human APRIL protein; assay: ELISA, coated APRIL; antibody 0.0213 nM
Method: as §1

[5] = target: T2, human APRIL protein; assay: ELISA, coated APRIL; antibody 2.67 nM
Method: as §1

[6] = target: T2, human APRIL protein; assay: ELISA, coated APRIL; antibody 0.107 nM
Method: as §1

[7] = target: T2, human APRIL protein; assay: ELISA, coated APRIL; antibody 66.7 nM
Method: as §1

[8] = target: T2, human APRIL protein; assay: ELISA, coated APRIL; antibody 0.00427 nM
Method: as §1

[9] = target: T2, human APRIL protein; assay: ELISA, coated APRIL; antibody 13.3 nM
Method: as §1

[10] = target: T2, human APRIL protein; assay: ELISA, coated APRIL; antibody 0.534 nM
Method: as §1

| Binder | Kd [1] | koff [1] | kon [1] | mouse B lymphocyte proliferation stimulated by hBLyS-ECD (viable cell signal) at 0 nM antibody [2] | mouse B lymphocyte proliferation stimulated by hBLyS-ECD (viable cell signal) at 0.000256 nM antibody [2] | mouse B lymphocyte proliferation stimulated by hBLyS-ECD (viable cell signal) at 0.00128 nM antibody [2] | mouse B lymphocyte proliferation stimulated by hBLyS-ECD (viable cell signal) at 0.0064 nM antibody [2] | mouse B lymphocyte proliferation stimulated by hBLyS-ECD (viable cell signal) at 0.032 nM antibody [2] | mouse B lymphocyte proliferation stimulated by hBLyS-ECD (viable cell signal) at 0.16 nM antibody [2] | mouse B lymphocyte proliferation stimulated by hBLyS-ECD (viable cell signal) at 0.8 nM antibody [2] | mouse B lymphocyte proliferation stimulated by hBLyS-ECD (viable cell signal) at 4 nM antibody [2] | mouse B lymphocyte proliferation stimulated by hBLyS-ECD (viable cell signal) at 20 nM antibody [2] | mouse B lymphocyte proliferation stimulated by hBLyS-ECD (viable cell signal) at 100 nM antibody [2] | also measured |
| --- | --- | --- | --- | --- | --- | --- | --- | --- | --- | --- | --- | --- | --- | --- |
| B1 | 0.0857 nM | 1.82e-05 s⁻¹ | 213000 M⁻¹ s⁻¹ | – | – | – | – | – | – | – | – | – | – | – |
| B2 | – | – | – | 3480 OD450 nm (as headed) | 3000 OD450 nm (as headed) | 3120 OD450 nm (as headed) | 3200 OD450 nm (as headed) | 2970 OD450 nm (as headed) | 2730 OD450 nm (as headed) | 951 OD450 nm (as headed) | 209 OD450 nm (as headed) | 152 OD450 nm (as headed) | 131 OD450 nm (as headed) | – |
| B3 | 0.147 nM | 4.89e-05 s⁻¹ | 334000 M⁻¹ s⁻¹ | – | – | – | – | – | – | – | – | – | – | – |
| B4 | – | – | – | – | – | – | – | – | – | – | – | – | – | OD450 nm [3]: 0.0551; OD450 nm [4]: 0.0565; OD450 nm [5]: 0.0703; OD450 nm [6]: 0.0558; OD450 nm [7]: 0.464; OD450 nm [8]: 0.0571; OD450 nm [9]: 0.116; OD450 nm [10]: 0.0599 |
| B5 | – | – | – | 3640 OD450 nm (as headed) | 3310 OD450 nm (as headed) | 3360 OD450 nm (as headed) | 3020 OD450 nm (as headed) | 2950 OD450 nm (as headed) | 3200 OD450 nm (as headed) | 408 OD450 nm (as headed) | 187 OD450 nm (as headed) | 187 OD450 nm (as headed) | 116 OD450 nm (as headed) | – |
| B6 | – | – | – | 3590 OD450 nm (as headed) | 3080 OD450 nm (as headed) | 3540 OD450 nm (as headed) | 2970 OD450 nm (as headed) | 2960 OD450 nm (as headed) | 2770 OD450 nm (as headed) | 1110 OD450 nm (as headed) | 217 OD450 nm (as headed) | 137 OD450 nm (as headed) | 127 OD450 nm (as headed) | – |
| B7 | – | – | – | 3450 OD450 nm (as headed) | 3110 OD450 nm (as headed) | 2900 OD450 nm (as headed) | 3050 OD450 nm (as headed) | 2960 OD450 nm (as headed) | 2890 OD450 nm (as headed) | 429 OD450 nm (as headed) | 223 OD450 nm (as headed) | 159 OD450 nm (as headed) | 169 OD450 nm (as headed) | – |
| B8 | 0.642 nM | 0.000211 s⁻¹ | 329000 M⁻¹ s⁻¹ | – | – | – | – | – | – | – | – | – | – | – |
